The binders below were run against Sho1, P40073 (assay: SPOT array). Details: median of control spots 1148.
Sho1, P40073, sequence (P40073 287-367): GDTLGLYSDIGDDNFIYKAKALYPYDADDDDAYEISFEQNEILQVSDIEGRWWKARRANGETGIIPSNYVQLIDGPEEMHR

Binder | SPOT intensity
AAAPKHAPPPVPNET | 0
VQKRKLPLPGSIASA | 11
STKKPRPPVKSKPKH | 12

What follows are binders tested against T1, Lsb4, P32793 (assay: SPOT array). Details: median of control spots 397.
T1 sequence (P32793 402-468, looked up): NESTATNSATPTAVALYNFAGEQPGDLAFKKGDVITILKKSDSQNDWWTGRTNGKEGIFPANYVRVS

Binder | SPOT intensity
AAAPKHAPPPVPNET | 0
VQKRKLPLPGSIASA | 13
STKKPRPPVKSKPKH | 0

The binders below were run against T2, Abp1, P15891 (assay: SPOT array). Details: median of control spots 935.
T2 sequence (P15891 535-592, looked up): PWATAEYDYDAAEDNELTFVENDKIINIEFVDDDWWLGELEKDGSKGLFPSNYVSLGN

Binder | SPOT intensity
AAAPKHAPPPVPNET | 0
VQKRKLPLPGSIASA | 157
STKKPRPPVKSKPKH | 397

These binders were tested against T3, Sla1-2, P32790 (assay: SPOT array). Details: median of control spots 712.
T3 sequence (P32790 60-140, looked up): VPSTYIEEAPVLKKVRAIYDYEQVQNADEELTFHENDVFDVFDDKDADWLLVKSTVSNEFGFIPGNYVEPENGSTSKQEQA

Binder | SPOT intensity
AAAPKHAPPPVPNET | 0
VQKRKLPLPGSIASA | 0
STKKPRPPVKSKPKH | 0

Each binder was assayed against T4, Pin3, Q06449 (assay: SPOT array). Details: median of control spots 2171.
T4 sequence (Q06449 53-122, looked up): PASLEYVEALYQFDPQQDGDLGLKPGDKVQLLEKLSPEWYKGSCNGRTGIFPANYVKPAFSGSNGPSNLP

Binder | SPOT intensity
AAAPKHAPPPVPNET | 0
VQKRKLPLPGSIASA | 0
STKKPRPPVKSKPKH | 0

The binders below were run against Bem1-1, P29366 (assay: SPOT array). Details: median of control spots 4282.
Bem1-1, P29366, sequence (P29366 55-141): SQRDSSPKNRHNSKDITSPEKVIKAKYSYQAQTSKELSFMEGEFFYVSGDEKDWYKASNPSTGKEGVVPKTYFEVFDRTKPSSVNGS

Binder | SPOT intensity
AAAPKHAPPPVPNET | 0
VQKRKLPLPGSIASA | 0
STKKPRPPVKSKPKH | 0

Each binder was assayed against T5, Hse1, P38753 (assay: SPOT array). Details: median of control spots 1727.
T5 sequence (P38753 208-285, looked up): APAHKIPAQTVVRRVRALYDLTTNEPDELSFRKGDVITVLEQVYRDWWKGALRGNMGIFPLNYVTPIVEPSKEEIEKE

Binder | SPOT intensity
AAAPKHAPPPVPNET | 13
VQKRKLPLPGSIASA | 0
STKKPRPPVKSKPKH | 1

What follows are binders tested against Myo3, P36006 (assay: SPOT array). Details: median of control spots 468.

Binder | SPOT intensity
AAAPKHAPPPVPNET | 557
VQKRKLPLPGSIASA | 0
STKKPRPPVKSKPKH | 0

Each binder was assayed against T6, Cdc25, P04821 (assay: SPOT array). Details: median of control spots 969.
T6 sequence (P04821 50-136, looked up): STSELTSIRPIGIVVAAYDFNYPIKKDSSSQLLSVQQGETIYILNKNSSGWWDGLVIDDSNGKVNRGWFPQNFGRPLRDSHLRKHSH

Binder | SPOT intensity
AAAPKHAPPPVPNET | 0
VQKRKLPLPGSIASA | 18
STKKPRPPVKSKPKH | 0

These binders were tested against GST (assay: SPOT array). Details: median of control spots 978.

Binder | SPOT intensity
AAAPKHAPPPVPNET | 0
VQKRKLPLPGSIASA | 0
STKKPRPPVKSKPKH | 2

These binders were tested against T7, Bbc1, P47068 (assay: SPOT array). Details: median of control spots 796.
T7 sequence (P47068 1-78, looked up): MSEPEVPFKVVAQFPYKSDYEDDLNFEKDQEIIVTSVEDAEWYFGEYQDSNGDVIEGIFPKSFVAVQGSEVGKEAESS

Binder | SPOT intensity
AAAPKHAPPPVPNET | 0
VQKRKLPLPGSIASA | 23
STKKPRPPVKSKPKH | 3

Each binder was assayed against T8, Hof1, Q05080 (assay: SPOT array). Details: median of control spots 4086.
T8 sequence (Q05080 590-669, looked up): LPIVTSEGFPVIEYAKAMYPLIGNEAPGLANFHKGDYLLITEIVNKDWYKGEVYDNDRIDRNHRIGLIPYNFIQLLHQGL

Binder | SPOT intensity
AAAPKHAPPPVPNET | 0
VQKRKLPLPGSIASA | 0
STKKPRPPVKSKPKH | 0

Each binder was assayed against T9, Bzz1-1, P38822 (assay: SPOT array). Details: median of control spots 4446.
T9 sequence (P38822 478-572, looked up): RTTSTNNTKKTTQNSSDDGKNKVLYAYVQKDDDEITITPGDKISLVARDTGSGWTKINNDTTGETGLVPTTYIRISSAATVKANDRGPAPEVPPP

Binder | SPOT intensity
AAAPKHAPPPVPNET | 0
VQKRKLPLPGSIASA | 0
STKKPRPPVKSKPKH | 1

These binders were tested against T10, Boi2, P39969 (assay: SPOT array). Details: median of control spots 1161.
T10 sequence (P39969 32-116, looked up): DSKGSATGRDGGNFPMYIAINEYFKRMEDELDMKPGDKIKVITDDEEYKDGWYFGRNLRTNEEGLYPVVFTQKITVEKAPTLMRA

Binder | SPOT intensity
AAAPKHAPPPVPNET | 0
VQKRKLPLPGSIASA | 0
STKKPRPPVKSKPKH | 1

These binders were tested against T11, Boi1, P38041 (assay: SPOT array). Details: median of control spots 1162.
T11 sequence (P38041 1-86, looked up): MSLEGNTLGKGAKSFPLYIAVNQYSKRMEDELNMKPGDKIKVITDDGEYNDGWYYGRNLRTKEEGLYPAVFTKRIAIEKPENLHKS

Binder | SPOT intensity
AAAPKHAPPPVPNET | 0
VQKRKLPLPGSIASA | 0
STKKPRPPVKSKPKH | 0

These binders were tested against T12, Fus1, P11710 (assay: SPOT array). Details: median of control spots 1200.
T12 sequence (P11710 432-512, looked up): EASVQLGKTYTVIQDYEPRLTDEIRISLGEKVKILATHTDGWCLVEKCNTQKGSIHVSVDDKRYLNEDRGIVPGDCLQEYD

Binder | SPOT intensity
AAAPKHAPPPVPNET | 0
VQKRKLPLPGSIASA | 0
STKKPRPPVKSKPKH | 1

The binders below were run against T13, Nbp2, Q12163 (assay: SPOT array). Details: median of control spots 357.
T13 sequence (Q12163 103-180, looked up): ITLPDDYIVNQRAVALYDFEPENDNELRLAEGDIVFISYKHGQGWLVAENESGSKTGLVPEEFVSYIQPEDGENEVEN

Binder | SPOT intensity
AAAPKHAPPPVPNET | 0
VQKRKLPLPGSIASA | 1
STKKPRPPVKSKPKH | 0

What follows are binders tested against Rvs167, P39743 (assay: SPOT array). Details: median of control spots 2707.
Rvs167, P39743, sequence (P39743 419-482): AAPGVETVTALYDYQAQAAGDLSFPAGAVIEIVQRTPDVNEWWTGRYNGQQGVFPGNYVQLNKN

Binder | SPOT intensity
AAAPKHAPPPVPNET | 0
VQKRKLPLPGSIASA | 0
STKKPRPPVKSKPKH | 12

These binders were tested against T14, Lsb1, P53281 (assay: SPOT array). Details: median of control spots 388.
T14 sequence (P53281 45-122, looked up): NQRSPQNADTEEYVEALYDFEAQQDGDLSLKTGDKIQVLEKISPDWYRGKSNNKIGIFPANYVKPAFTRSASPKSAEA

Binder | SPOT intensity
AAAPKHAPPPVPNET | 0
VQKRKLPLPGSIASA | 0
STKKPRPPVKSKPKH | 0

What follows are binders tested against T15, Sla1-3, P32790 (assay: SPOT array). Details: median of control spots 5475.
T15 sequence (P32790 344-424, looked up): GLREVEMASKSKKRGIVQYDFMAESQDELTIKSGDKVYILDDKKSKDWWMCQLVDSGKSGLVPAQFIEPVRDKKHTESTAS

Binder | SPOT intensity
AAAPKHAPPPVPNET | 0
VQKRKLPLPGSIASA | 4
STKKPRPPVKSKPKH | 5

These binders were tested against T16, Bzz1-2, P38822 (assay: SPOT array). Details: median of control spots 4538.
T16 sequence (P38822 568-633, looked up): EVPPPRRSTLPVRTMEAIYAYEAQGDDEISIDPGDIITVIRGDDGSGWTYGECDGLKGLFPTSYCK

Binder | SPOT intensity
AAAPKHAPPPVPNET | 0
VQKRKLPLPGSIASA | 0
STKKPRPPVKSKPKH | 5

What follows are binders tested against T17, Pex13, P80667 (assay: SPOT array). Details: median of control spots 1341.
T17 sequence (P80667 295-386, looked up): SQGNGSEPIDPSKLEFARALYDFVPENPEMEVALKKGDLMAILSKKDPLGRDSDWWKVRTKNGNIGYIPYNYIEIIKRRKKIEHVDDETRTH

Binder | SPOT intensity
AAAPKHAPPPVPNET | 0
VQKRKLPLPGSIASA | 0
STKKPRPPVKSKPKH | 0

What follows are binders tested against Bem1-2, P29366 (assay: SPOT array). Details: median of control spots 4347.
Bem1-2, P29366, sequence (P29366 139-227): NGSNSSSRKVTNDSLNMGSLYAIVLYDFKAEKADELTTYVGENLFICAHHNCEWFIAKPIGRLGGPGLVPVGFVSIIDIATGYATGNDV

Binder | SPOT intensity
AAAPKHAPPPVPNET | 84
VQKRKLPLPGSIASA | 1
STKKPRPPVKSKPKH | 2

Each binder was assayed against T18, Bud14, P27637 (assay: SPOT array). Details: median of control spots 956.
T18 sequence (P27637 247-328, looked up): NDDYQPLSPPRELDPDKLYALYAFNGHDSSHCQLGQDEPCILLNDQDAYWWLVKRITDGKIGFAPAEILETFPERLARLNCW

Binder | SPOT intensity
AAAPKHAPPPVPNET | 0
VQKRKLPLPGSIASA | 0
STKKPRPPVKSKPKH | 3

Each binder was assayed against T19, Myo5, Q04439 (assay: SPOT array). Details: median of control spots 471.
T19 sequence (Q04439 1072-1160, looked up): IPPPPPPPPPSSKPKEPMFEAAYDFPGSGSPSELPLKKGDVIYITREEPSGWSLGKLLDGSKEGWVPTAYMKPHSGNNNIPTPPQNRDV

Binder | SPOT intensity
AAAPKHAPPPVPNET | 376
VQKRKLPLPGSIASA | 0
STKKPRPPVKSKPKH | 0

What follows are binders tested against T20, Cyk3, Q07533 (assay: SPOT array). Details: median of control spots 1451.
T20 sequence (Q07533 1-83, looked up): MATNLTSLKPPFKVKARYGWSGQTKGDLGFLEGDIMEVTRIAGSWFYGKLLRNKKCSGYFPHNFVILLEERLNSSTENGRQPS

Binder | SPOT intensity
AAAPKHAPPPVPNET | 0
VQKRKLPLPGSIASA | 0
STKKPRPPVKSKPKH | 3

Each binder was assayed against T21, Lsb3, P43603 (assay: SPOT array). Details: median of control spots 406.
T21 sequence (P43603 385-451, looked up): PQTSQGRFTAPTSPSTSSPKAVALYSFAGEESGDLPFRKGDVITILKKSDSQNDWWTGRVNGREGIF

Binder | SPOT intensity
AAAPKHAPPPVPNET | 0
VQKRKLPLPGSIASA | 1
STKKPRPPVKSKPKH | 0
